In patent publication USRE45968 (SIGMA TAU INDUSTRIE FARMACEUTICHE RIUNITE S PA, dated 2016):

T1: Human CEA protein, purified from colon carcinoma and liver metastases (human, UniProt P06731 35-685, limits assumed)
T1 construct: Bought; Biotinylated for the selections; also called carcino-embryonic antigen
T1 sequence (looked up): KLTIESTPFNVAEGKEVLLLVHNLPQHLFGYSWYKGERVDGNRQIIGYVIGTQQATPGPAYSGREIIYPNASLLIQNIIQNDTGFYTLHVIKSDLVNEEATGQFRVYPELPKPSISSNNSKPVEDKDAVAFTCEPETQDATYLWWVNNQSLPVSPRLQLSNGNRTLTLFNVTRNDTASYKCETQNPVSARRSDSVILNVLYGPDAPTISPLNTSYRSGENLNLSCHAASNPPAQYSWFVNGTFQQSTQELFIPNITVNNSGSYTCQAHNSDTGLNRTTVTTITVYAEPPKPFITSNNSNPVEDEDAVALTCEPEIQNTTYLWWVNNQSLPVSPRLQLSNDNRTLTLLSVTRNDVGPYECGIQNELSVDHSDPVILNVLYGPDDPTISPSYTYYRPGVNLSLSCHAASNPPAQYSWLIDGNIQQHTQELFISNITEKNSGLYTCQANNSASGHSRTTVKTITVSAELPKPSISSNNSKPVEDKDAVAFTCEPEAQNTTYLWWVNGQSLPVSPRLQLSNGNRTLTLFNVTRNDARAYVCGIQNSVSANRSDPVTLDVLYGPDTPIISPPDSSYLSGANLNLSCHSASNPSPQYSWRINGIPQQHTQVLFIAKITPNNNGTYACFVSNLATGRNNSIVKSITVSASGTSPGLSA


Tests used:
[1] = target: T2, GST-fused MUC1 recombinant protein, containing a 107-aa MUC1 sequence, containing 5.3 repeats (UniProt P08515 1-218 = GST; P15941 126-232); experiment: Surface Plasmon Resonance (Biacore), soluble scFv
T2 construct: Biotinylated for the selections; also called Recombinant MUC1 protein; MUC1 tumor antigen

[2] = target: T1, Human CEA protein, purified from colon …; experiment: Surface Plasmon Resonance (Biacore), soluble scFv

Binder | Kd [1] | Kd [2]
MB5/C′1 scFv antibody, soluble form (scFv, domain: first two amino acids of the mature AP protein; cloned in pKM16 and produced in soluble form; also called MBB5/C′1; not shown: FLAG/His-tail at the carboxyl-terminus (pKM16)) scFv: RTMEEVQLQESGAEVKKPGASVKVSCKASGYTFTASYMHWVRQAPGQGLEWMGWFNPNSGGTNYAQKFQGRVTMTGDTSTSTGYMELSRLTSDDAAVYYCARDRASAMGVWGQGTLVTVSSGGGGSGGGGSGGGGSQSALTQPASVSGSPGQSITISCTGTSSDVGGYNYVSWYQQHPGKAPKLMIYDVSHRPSGISNRFSGSKSGNTASLTISRLQAEDEADYYCSSYTSSNTFIFGTGTQLTVLGAA | 9.46 nM | 
CB37/3B scFv antibody, soluble form (scFv, domain: first two amino acids of the mature AP protein; not shown: FLAG/His-tail at the carboxyl-terminus (pKM16)) scFv: RTMEEVQLVQSGGGLIQPGGSLRLSCVASEFNVRSNYMSWVRQAPGKGLEWVSVMYDGGSTYYADSVKGRFTISRDNSKNTVYLQMNSLRAEDTAVYYCARGGLGLPTIAPWEIWGQGTMVTVSSGGGGSGGGGSGGGGSSYVLTQPPSVSVAPGKTATITCAGNNIGSNSVYWYQQKPGLAPVLVVYDDRDRPSGIHERFSGSKSGNTATLTISRVEAGDEADYSCQVWDPSSDHLYVFGTGTQLTVLGAA |  | 3.66 nM
CB37/9C scFv antibody, soluble form (scFv, domain: first two amino acids of the mature AP protein; cloned in pKM16 and produced in soluble form; not shown: FLAG/His-tail at the carboxyl-terminus (pKM16)) scFv: RTMEEVQLVQSGGGLIQPGGSLRLSCVASEFNVRSNYMSWVRQAPGKGLEWVSVMYDGGSTYYADSVKGRFTISRDNSKNTVYLQMNSLRAEDTAVYYCARGGLGLPTIASWEIWGQGTMVTVSSGGGGSGGGGSGGGGSSYVLTQPPSVSVAPGKTATITCAGNNIGSNSVYWYQQKPGLAPVLVVYDDRDRPSGLPGRFSGSKSGNTATLTISRVEAGDEADYSCQVWDPSSDHLYVFGTGTQLTVLGAA |  | 1.42 nM
MB5/C′3 scFv antibody, soluble form (scFv, domain: first two amino acids of the mature AP protein; cloned in pKM16 and produced in soluble form; not shown: FLAG/His-tail at the carboxyl-terminus (pKM16)) scFv: RTMEQVQLVQSGAEVKKPGASVKVSCKASGYTFTASYMHWVRQAPGQGLEWMGWFNPNSGGTNYAQKFQGRVTMTGDTSTSTGYMELSRLTSDDAAVYYCARDRASAMGVWGQGTLVTVSSGGGGSGGGGSGGGGSQSALTQPASVSGSPGQSITISCTGTSSDVGGYNYVSWYQQHPGKAPKLMIYDVTNRPSGVSSRFSGSKSGNTASLTISGLQTEDEADYYCNSFTSSNTYVFGTGTQLTVLGAA | 23.1 nM | 
